Test results taken from patent US20240409645A1 (DUALYX, published 2024).

T1: human IL-2 receptor (IL-2Rα/IL-2Rβ/γc) (human, UniProt P01589 22-272; P14784 27-551; P31785 23-369)
T1 sequence 1: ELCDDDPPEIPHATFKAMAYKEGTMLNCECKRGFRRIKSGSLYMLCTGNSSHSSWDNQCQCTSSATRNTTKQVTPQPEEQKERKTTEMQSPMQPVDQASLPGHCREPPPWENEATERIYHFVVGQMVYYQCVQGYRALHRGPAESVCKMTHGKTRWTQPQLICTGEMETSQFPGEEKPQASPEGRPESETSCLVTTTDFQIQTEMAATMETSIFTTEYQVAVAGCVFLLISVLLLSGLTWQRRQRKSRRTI
T1 sequence 2: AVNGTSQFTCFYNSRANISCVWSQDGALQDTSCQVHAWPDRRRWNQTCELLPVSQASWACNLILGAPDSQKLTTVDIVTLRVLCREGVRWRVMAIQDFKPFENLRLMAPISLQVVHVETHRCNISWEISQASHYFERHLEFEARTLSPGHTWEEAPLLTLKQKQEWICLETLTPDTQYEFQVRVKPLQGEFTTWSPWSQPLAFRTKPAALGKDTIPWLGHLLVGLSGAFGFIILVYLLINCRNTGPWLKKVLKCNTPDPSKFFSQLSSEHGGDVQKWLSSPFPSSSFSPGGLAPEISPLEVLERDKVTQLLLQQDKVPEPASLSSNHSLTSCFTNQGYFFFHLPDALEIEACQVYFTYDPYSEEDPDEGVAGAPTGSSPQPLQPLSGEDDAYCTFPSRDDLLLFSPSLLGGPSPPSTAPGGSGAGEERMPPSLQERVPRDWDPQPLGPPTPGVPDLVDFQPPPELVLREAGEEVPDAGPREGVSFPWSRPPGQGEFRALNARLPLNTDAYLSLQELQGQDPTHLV
T1 sequence 3: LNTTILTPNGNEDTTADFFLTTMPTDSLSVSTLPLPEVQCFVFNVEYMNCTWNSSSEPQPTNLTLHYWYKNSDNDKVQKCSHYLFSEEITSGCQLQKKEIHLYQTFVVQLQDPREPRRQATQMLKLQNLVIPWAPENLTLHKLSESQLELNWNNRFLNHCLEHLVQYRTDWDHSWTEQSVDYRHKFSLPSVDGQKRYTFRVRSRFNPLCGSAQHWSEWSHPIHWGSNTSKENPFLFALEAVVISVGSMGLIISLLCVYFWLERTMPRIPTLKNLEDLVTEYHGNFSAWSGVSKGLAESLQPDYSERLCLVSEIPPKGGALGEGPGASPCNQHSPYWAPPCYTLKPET

B1: DC00060 (other)
chain 1: QVQLVESGGGLVQPGGSLRLSCATSGFTFRNNFMSWVRQAPGKGLEWVSTISYGGESTTYAESVKGRFTISRDNAKNTLYLQMNNLKPEDTAVYYCAKATSYDSIRSGSRGQGTQVTVSSGGGGSGGGGSGGGGSEVQLVESGGGLVQTGGSLRLSCAASGGTFSRDAMAWFRQVPGKEREFVALISWSGATTNYADSVKGRFAISRDNGKNTVYLQMNRLKPADTAIYYCAADRRPMGSRSYFEPTEYDDWGQGTQVTVSSGGGGSGGGGSGGGGSDKTHTCPPCPAPEAAGGPSVFLFPPKPKDTLMISRTPEVTCVVVDVSHEDPEVKFNWYVDGVEVHNAKTKPREEQYNSTYRVVSVLTVLHQDWLNGKEYKCKVSNKALGAPIEKTISKAKGQPREPQVYTLPPSRDELTKNQVSLTCLVKGFYPSDIAVEWESNGQPENNYKTTPPVLDSDGSFLLYSKLTVDKSRWQQGNVFSCSVMHEALHNHYTQKSLSLSPGK
chain 2: QVQLVESGGGLVQPGGSLRLSCATSGFTFRNNFMSWVRQAPGKGLEWVSTISYGGESTTYAESVKGRFTISRDNAKNTLYLQMNNLKPEDTAVYYCAKATSYDSIRSGSRGQGTQVTVSSGGGGSGGGGSGGGGSQVQLVESGGGLVQAGGSLTLSCAAPGRTFGTDVVGWFRQAPGKEREFVASISRSGDGIYYDDSVKGRFTISRNNAWNTVNLQMNSLKVEDTAVYYCAAGDGWSTYDYWGQGTQVTVSSGGGGSGGGGSGGGGSDKTHTCPPCPAPEAAGGPSVFLFPPKPKDTLMISRTPEVTCVVVDVSHEDPEVKFNWYVDGVEVHNAKTKPREEQYNSTYRVVSVLTVLHQDWLNGKEYKCKVSNKALGAPIEKTISKAKGQPREPQVYTLPPSRDELTKNQVSLTCLVKGFYPSDIAVEWESNGQPENNYKTTPPVLDSDGSFFLYSRLTVDKSRWQQGNVFSCSVMHEALHNHYTQKSLSLSPGK
B2: TsVHH-48 (other)
chain 1: QVQLVESGGGLVQPGGSLRLSCATSGFTFRNNFMSWVRQAPGKGLEWVSTISYGGESTTYAESVKGRFTISRDNAKNTLYLQMNNLKPEDTAVYYCAKATSYDSIRSGSRGQGTQVTVSSDKTHTCPPCPAPEAAGGPSVFLFPPKPKDTLMISRTPEVTCVVVDVSHEDPEVKFNWYVDGVEVHNAKTKPREEQYNSTYRVVSVLTVLHQDWLNGKEYKCKVSNKALGAPIEKTISKAKGQPREPQVYTLPPSRDELTKNQVSLTCLVKGFYPSDIAVEWESNGQPENNYKTTPPVLDSDGSFFLYSRLTVDKSRWQQGNVFSCSVMHEALHNHYTQKSLSLSPGK
chain 2: QVQLVESGGGLVQAGGSLTLSCAAPGRTFGTDVVGWFRQAPGKEREFVASISRSGDGIYYDDSVKGRFTISRNNAWNTVNLQMNSLKVEDTAVYYCAAGDGWSTYDYWGQGTQVTVSSGGGGSGGGGSGGGGSGSEVQLVESGGGLVQTGGSLRLSCAASGGTFSRDAMAWFRQVPGKEREFVALISWSGATTNYADSVKGRFAISRDNGKNTVYLQMNRLKPADTAIYYCAADRRPMGSRSYFEPTEYDDWGQGTQVTVSSGGGGSGGGGSGGGGSTVSSDKTHTCPPCPAPEAAGGPSVFLFPPKPKDTLMISRTPEVTCVVVDVSHEDPEVKFNWYVDGVEVHNAKTKPREEQYNSTYRVVSVLTVLHQDWLNGKEYKCKVSNKALGAPIEKTISKAKGQPREPQVYTLPPSRDELTKNQVSLTCLVKGFYPSDIAVEWESNGQPENNYKTTPPVLDSDGSFLLYSKLTVDKSRWQQGNVFSCSVMHEALHNHYTQKSLSLSPGK
B3: DC00093 (other)
chain 1: QLQLVESGGGLVQAGDSLRLSCAASGFNFGWHAMGWFRQAPGKEREFVATITWTGRDTYYADSVRGRFTISKDNAKDTLFLQMNSLRPDDTGVYYCAKARERATWAYSEDDCDYWGQGTQVTVSSDKTHTCPPCPAPEAAGGPSVFLFPPKPKDTLMISRTPEVTCVVVDVSHEDPEVKFNWYVDGVEVHNAKTKPREEQYNSTYRVVSVLTVLHQDWLNGKEYKCKVSNKALGAPIEKTISKAKGQPREPQVYTLPPSRDELTKNQVSLTCLVKGFYPSDIAVEWESNGQPENNYKTTPPVLDSDGSFLLYSKLTVDKSRWQQGNVFSCSVMHEALHNHYTQKSLSLSPGK
chain 2: QVQLVESGGGLVQAGGSLTLSCAAPGRTFGTDVVGWFRQAPGKEREFVASISRSGDGIYYDDSVKGRFTISRNNAWNTVNLQMNSLKVEDTAVYYCAAGDGWSTYDYWGQGTQVTVSSGGGGSGGGGSGGGGSEVQLVESGGGLVQTGGSLRLSCAASGGTFSRDAMAWFRQVPGKEREFVALISWSGATTNYADSVKGRFAISRDNGKNTVYLQMNRLKPADTAIYYCAADRRPMGSRSYFEPTEYDDWGQGTQVTVSSGGGGSGGGGSGGGGSQVQLVESGGGLVQPGGSLRLSCATSGFTFRNNFMSWVRQAPGKGLEWVSTISYGGESTTYAESVKGRFTISRDNAKNTLYLQMNNLKPEDTAVYYCAKATSYDSIRSGSRGQGTQVTVSSDKTHTCPPCPAPEAAGGPSVFLFPPKPKDTLMISRTPEVTCVVVDVSHEDPEVKFNWYVDGVEVHNAKTKPREEQYNSTYRVVSVLTVLHQDWLNGKEYKCKVSNKALGAPIEKTISKAKGQPREPQVYTLPPSRDELTKNQVSLTCLVKGFYPSDIAVEWESNGQPENNYKTTPPVLDSDGSFFLYSRLTVDKSRWQQGNVFSCSVMHEALHNHYTQKSLSLSPGK
B4: DC00068 (other)
chain 1: EVQLVESGGGLVQTGGSLRLSCAASGGTFSRDAMAWFRQVPGKEREFVALISWSGATTNYADSVKGRFAISRDNGKNTVYLQMNRLKPADTAIYYCAADRRPMGSRSYFEPTEYDDWGQGTQVTVSSGGGGSGGGGSGGGGSQVQLVESGGGLVQPGGSLRLSCATSGFTFRNNFMSWVRQAPGKGLEWVSTISYGGESTTYAESVKGRFTISRDNAKNTLYLQMNNLKPEDTAVYYCAKATSYDSIRSGSRGQGTQVTVSSDKTHTCPPCPAPEAAGGPSVFLFPPKPKDTLMISRTPEVTCVVVDVSHEDPEVKFNWYVDGVEVHNAKTKPREEQYNSTYRVVSVLTVLHQDWLNGKEYKCKVSNKALGAPIEKTISKAKGQPREPQVYTLPPSRDELTKNQVSLTCLVKGFYPSDIAVEWESNGQPENNYKTTPPVLDSDGSFLLYSKLTVDKSRWQQGNVFSCSVMHEALHNHYTQKSLSLSPGK
chain 2: QVQLVESGGGLVQAGGSLTLSCAAPGRTFGTDVVGWFRQAPGKEREFVASISRSGDGIYYDDSVKGRFTISRNNAWNTVNLQMNSLKVEDTAVYYCAAGDGWSTYDYWGQGTQVTVSSGGGGSGGGGSGGGGSQVQLVESGGGLVQPGGSLRLSCATSGFTFRNNFMSWVRQAPGKGLEWVSTISYGGESTTYAESVKGRFTISRDNAKNTLYLQMNNLKPEDTAVYYCAKATSYDSIRSGSRGQGTQVTVSSGGGGSGGGGSGGGGSEVQLVESGGGLVQTGGSLRLSCAASGGTFSRDAMAWFRQVPGKEREFVALISWSGATTNYADSVKGRFAISRDNGKNTVYLQMNRLKPADTAIYYCAADRRPMGSRSYFEPTEYDDWGQGTQVTVSSGGGGSGGGGSGGGGSDKTHTCPPCPAPEAAGGPSVFLFPPKPKDTLMISRTPEVTCVVVDVSHEDPEVKFNWYVDGVEVHNAKTKPREEQYNSTYRVVSVLTVLHQDWLNGKEYKCKVSNKALGAPIEKTISKAKGQPREPQVYTLPPSRDELTKNQVSLTCLVKGFYPSDIAVEWESNGQPENNYKTTPPVLDSDGSFFLYSRLTVDKSRWQQGNVFSCSVMHEALHNHYTQKSLSLSPGK

target: T1, human IL-2 receptor (IL-2Rα/IL-2Rβ/γc); assay: cell-based or functional assay

Row | EC50 (nM) pSTAT5, NK, human PBMCs [nM] | EC50 (nM) pSTAT5, Treg, human PBMCs | Fold Max signal (% pSTAT5+) Treg/NK [fold] | Max signal (% pSTAT5+), NK [% pSTAT5+] | Max signal (% pSTAT5+), Treg [% pSTAT5+] | fold EC50 NK/Treg [fold] | Binder
1 | 0.769 | 0.00215 nM | 8 | 2.49 | 19.8 | 358 | B1
2 | 1.14 | 0.00195 nM | 8 | 8.26 | 64.1 | 583 | B2
3 | 0.0752 | 0.735 nM | 6 | 11.4 | 66.7 | – | B3
4 | 0.00127 | 0.425 pM | 9 | 3.39 | 30 | 3 | B4

target: T1, human IL-2 receptor (IL-2Rα/IL-2Rβ/γc); assay: cell-based or functional assay; remark: another data set of the same source

Row | EC50 (nM) pSTAT5, NK, human PBMCs [nM] | EC50 (nM) pSTAT5, Treg, human PBMCs [nM] | Fold Max signal (% pSTAT5+) Treg/NK [fold] | Max signal (% pSTAT5+), NK [% pSTAT5+] | Max signal (% pSTAT5+), Treg [% pSTAT5+] | fold EC50 NK/Treg [fold] | Binder
5 | 0.645 | 0.00334 | 7 | 8 | 56 | 193 | B1
6 | 2.59 | 0.0118 | 5 | 20 | 95 | 220 | B2
7 | 0.0936 | 0.00189 | 6 | 14 | 83 | 49 | B4
